Data as given in the supplement of paper PMC6379048.
pEC50, pKd: −log10 of the molar value.

Legend:
HNRNPUL1 = biological target: T1, HNRNPUL1 (UniProt Q9BUJ2); assay: Kd (EC50 corrected by depletion factor)
T1 sequence: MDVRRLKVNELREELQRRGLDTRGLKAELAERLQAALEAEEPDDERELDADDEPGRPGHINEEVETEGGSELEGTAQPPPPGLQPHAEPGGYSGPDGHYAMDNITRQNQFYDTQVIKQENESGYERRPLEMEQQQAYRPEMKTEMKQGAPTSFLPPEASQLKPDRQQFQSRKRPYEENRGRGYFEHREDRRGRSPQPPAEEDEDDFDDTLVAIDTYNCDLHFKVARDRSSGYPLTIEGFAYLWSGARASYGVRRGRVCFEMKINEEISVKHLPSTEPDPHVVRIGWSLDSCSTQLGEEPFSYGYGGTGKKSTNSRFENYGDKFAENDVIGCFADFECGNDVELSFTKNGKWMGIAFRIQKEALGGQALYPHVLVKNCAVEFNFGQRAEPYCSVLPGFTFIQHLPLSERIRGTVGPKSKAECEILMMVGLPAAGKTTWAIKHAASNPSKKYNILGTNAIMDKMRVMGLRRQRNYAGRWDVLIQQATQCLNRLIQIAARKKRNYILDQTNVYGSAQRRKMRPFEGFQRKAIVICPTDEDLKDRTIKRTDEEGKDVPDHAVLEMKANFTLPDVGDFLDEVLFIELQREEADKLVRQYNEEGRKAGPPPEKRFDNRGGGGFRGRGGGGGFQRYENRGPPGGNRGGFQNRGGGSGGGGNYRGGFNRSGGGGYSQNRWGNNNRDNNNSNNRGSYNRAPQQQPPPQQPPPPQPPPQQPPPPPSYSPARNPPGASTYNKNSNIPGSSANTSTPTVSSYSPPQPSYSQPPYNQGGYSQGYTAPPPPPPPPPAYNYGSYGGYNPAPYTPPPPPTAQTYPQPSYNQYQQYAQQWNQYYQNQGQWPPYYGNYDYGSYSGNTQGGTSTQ
Procedure, shortened: (§1)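 To obtain EC50, data were fitted with a four-parameter log-logistic model; Kd was then EC50 multiplied by a protein-dependent depletion factor. Beforehand, free RNA oligos (0 nM to 30 μM) were pre-incubated with HEK293-FT lysate (2.5 mg protein/well) for 1 h at 4°C. The lysate then spent 30 min at 4°C with the same 5′-amino-C6 oligos coupled to NHS-Sepharose beads, and bound proteins were quantified by label-free LC-MS/MS, normalised to the control.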

NKRF = biological target: T2, NKRF (UniProt O15226); assay: Kd (EC50 corrected by depletion factor)
T2 sequence: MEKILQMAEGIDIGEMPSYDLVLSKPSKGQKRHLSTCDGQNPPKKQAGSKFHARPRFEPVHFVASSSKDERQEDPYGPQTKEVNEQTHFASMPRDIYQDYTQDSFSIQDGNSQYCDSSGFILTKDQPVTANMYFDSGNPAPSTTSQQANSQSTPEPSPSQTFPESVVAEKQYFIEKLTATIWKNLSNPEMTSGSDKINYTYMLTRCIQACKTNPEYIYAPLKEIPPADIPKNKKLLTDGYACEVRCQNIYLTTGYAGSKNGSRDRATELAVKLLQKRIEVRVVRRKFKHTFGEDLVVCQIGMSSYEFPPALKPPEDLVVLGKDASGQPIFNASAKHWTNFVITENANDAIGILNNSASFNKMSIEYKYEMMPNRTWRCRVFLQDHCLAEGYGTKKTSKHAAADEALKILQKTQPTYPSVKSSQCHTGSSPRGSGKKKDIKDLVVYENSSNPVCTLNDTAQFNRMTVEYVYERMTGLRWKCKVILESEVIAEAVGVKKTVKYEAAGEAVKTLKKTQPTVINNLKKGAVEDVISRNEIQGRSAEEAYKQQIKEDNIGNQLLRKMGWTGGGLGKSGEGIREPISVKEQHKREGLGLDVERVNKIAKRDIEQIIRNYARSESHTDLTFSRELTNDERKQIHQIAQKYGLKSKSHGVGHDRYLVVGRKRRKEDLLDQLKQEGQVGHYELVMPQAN
Procedure, shortened: as §1

DHX15 = DHX15 (UniProt O43143); assay: Kd (EC50 corrected by depletion factor)
Procedure, shortened: as §1

RBMS3 = biological target: T3, RBMS3 (UniProt Q6XE24); assay: EC50 of free RNA motif oligo competing protein binding to immobilised probe
T3 sequence: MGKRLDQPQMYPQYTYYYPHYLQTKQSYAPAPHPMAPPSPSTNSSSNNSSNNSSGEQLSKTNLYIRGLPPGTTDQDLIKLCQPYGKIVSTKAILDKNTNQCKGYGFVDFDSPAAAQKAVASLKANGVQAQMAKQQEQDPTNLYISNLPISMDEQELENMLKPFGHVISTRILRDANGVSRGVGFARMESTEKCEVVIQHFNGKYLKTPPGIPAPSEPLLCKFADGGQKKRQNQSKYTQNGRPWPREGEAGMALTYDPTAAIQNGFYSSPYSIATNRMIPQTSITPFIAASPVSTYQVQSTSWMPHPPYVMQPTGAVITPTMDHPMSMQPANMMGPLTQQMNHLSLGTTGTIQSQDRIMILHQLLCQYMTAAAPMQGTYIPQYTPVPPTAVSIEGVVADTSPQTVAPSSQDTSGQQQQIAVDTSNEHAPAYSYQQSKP
Procedure, shortened: as §1

RBM7 = biological target: T4, RBM7 (UniProt Q9Y580); assay: as above
T4 sequence: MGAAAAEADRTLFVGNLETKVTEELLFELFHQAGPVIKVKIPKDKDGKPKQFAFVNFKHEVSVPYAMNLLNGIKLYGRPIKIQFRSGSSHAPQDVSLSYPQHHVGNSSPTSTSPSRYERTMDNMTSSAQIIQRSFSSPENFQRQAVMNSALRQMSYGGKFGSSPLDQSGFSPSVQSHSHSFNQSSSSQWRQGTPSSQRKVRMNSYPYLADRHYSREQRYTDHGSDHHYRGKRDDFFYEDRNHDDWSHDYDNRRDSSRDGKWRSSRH
Procedure, shortened: as §1

DHX15, sequence (O43143 whole entry): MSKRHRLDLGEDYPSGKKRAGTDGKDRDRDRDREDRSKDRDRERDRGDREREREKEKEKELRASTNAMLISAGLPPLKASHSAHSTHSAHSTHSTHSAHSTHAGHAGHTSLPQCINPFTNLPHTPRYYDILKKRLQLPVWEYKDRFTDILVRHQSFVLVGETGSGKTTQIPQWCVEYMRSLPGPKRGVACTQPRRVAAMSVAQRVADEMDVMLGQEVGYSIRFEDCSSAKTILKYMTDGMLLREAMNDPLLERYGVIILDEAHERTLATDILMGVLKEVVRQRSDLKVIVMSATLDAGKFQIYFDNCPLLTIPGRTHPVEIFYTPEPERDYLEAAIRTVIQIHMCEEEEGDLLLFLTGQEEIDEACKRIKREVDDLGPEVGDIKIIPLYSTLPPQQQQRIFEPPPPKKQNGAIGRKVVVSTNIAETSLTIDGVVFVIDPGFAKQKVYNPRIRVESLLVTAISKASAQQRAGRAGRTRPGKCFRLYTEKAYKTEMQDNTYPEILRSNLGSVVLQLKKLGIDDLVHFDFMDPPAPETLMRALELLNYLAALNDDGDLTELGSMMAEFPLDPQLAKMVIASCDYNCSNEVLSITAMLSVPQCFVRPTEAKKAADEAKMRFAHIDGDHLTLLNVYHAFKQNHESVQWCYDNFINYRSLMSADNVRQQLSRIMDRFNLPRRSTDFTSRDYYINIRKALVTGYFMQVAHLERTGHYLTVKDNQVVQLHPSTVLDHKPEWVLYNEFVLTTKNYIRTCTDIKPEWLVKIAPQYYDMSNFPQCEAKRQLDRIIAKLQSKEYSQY

CUGUCCU
pKd (HNRNPUL1): 7.45
pKd (NKRF): 6.53
pKd (DHX15): 6.45

AAUAAA
pKd (HNRNPUL1): 6.51
pKd (NKRF): 6.65
pKd (DHX15): 6.35
pEC50 (RBMS3): 5.93
pEC50 (RBM7): 5.71

UAUUUAU
pKd (HNRNPUL1): 6.37
pKd (NKRF): 6.65
pKd (DHX15): 6.81
pEC50 (RBMS3): 6.56
pEC50 (RBM7): 6.51
